Patent publication US20210395392A1 (Bristol-Myers Squibb, published 2021)

B1: HuMAb 10K11 (antibody, human IgG1, kappa, V domains shown)
VH: QLQLQESGPGLVKPSETLSLTCAVSGYSISSDYSWGWIRQPPGKGLEWIGSIYHSGNTYFNPSLKSRVTISVDTSKNQFSLKLSSVTAADTAVYYCARDKSYYFGPGSMDVWGQGTTVTVSS
VL: AIQLTQSPSSLSASVGDRVTITCRASQGISSALAWYQQKPGKAPKLLIYDASSLESGVPSRFSGSGSGTDFTLTISSLQPEDFATYYCQQFKSYLTFGQGTRLEIKR
notes: Human anti-hMerTK mAb, Bin 1
B2: Humanized MAb 2L105 (antibody, human IgG1, lambda, V domains shown)
VH: QVTLKESGPVLVKPTETLTLTCTVSGISLSSFAISWIRQPPGKALEWLAVIWTGGGTDYNSALKSRLTISKDTSKSQVVLTMTNMDPVDTATYYCASHWYLDVWGQGTTVTVSS
VL: QTVVTQEPSFSVSPGGTVTLTCRSSTGAVSTSNYANWVQQTPGQAPRGLIGGANSRAPGIPDRFSGSILGNKAALTITGAQADDESDYYCALWFSNHWVFGGGTKLTVLG
notes: Humanized variant of moMAb 2D9, Bin 2
B3: Humanized mAb 4M60 (antibody, human IgG1, kappa, V domains shown)
VH: QVQLVQSGSELKKPGASVKVSCKASGNTFTTYGMSWVRQAPGQGLEWMGWINNYSGVSTYADDFKGRFVFSLDTSVSTAYLQISSLKAEDTAVYYCARDYYGSGGWVFDYWGQGTTVTVSS
VL: DVVMTQSPLSLPVTLGQPASISCKSSQSLLDSEGKTYLNWLQQRPGQSPRRLMYLVSKLDSGVPDRFSGSGSGTDFTLKISRVEAEDVGVYYCWQGTHFPRTFGGGTKVEIKR
notes: Humanized variant of moMAb 4E9, Bin 2
B4: MoMAb 2D9 (antibody, V domains shown)
VH: QVQLKESGPGLVAPSQSLSITCTVSGISLSSFAISWVRQPPGKGLEWLGVIWTGGGTDYNSALKSRLTISKDTSKNQVFLKMNSLQTDDTARYYCASHWYLDVWGTGTTVTVSS
VL: QAVVTQESALTTSPGETVTLTCRSSTGAVSTSNYANWVQEKPDHLFTGLIGGANSRAPGIPARFSGSLIGDKAALTITGAQTEDEAIYFCALWFSNHWVFGGGTKLTVL
notes: Mouse mAb; Bin 2
B5: MoMAb 4E9 (antibody, V domains shown)
VH: QIQLVQSGPELKKPGETVKISCKASGNTFTTYGMSWVKQAPGKNLKWMGWINNYSGVSTYADDFKGRFAFSLETSATTAYLQINNLTNEDSATYFCARDYYGSGGWVFDYWGQGTTLTVSS
VL: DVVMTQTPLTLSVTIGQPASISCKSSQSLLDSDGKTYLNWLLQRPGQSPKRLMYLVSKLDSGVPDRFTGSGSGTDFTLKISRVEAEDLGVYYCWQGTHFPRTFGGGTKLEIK
notes: Mouse mAb; Bin 2

Experiments:
[1] = target: T1, Human MerTK on hMerTK-expressing cells (human, UniProt Q12866 21-999); assay: cell-based or functional assay
T1 sequence: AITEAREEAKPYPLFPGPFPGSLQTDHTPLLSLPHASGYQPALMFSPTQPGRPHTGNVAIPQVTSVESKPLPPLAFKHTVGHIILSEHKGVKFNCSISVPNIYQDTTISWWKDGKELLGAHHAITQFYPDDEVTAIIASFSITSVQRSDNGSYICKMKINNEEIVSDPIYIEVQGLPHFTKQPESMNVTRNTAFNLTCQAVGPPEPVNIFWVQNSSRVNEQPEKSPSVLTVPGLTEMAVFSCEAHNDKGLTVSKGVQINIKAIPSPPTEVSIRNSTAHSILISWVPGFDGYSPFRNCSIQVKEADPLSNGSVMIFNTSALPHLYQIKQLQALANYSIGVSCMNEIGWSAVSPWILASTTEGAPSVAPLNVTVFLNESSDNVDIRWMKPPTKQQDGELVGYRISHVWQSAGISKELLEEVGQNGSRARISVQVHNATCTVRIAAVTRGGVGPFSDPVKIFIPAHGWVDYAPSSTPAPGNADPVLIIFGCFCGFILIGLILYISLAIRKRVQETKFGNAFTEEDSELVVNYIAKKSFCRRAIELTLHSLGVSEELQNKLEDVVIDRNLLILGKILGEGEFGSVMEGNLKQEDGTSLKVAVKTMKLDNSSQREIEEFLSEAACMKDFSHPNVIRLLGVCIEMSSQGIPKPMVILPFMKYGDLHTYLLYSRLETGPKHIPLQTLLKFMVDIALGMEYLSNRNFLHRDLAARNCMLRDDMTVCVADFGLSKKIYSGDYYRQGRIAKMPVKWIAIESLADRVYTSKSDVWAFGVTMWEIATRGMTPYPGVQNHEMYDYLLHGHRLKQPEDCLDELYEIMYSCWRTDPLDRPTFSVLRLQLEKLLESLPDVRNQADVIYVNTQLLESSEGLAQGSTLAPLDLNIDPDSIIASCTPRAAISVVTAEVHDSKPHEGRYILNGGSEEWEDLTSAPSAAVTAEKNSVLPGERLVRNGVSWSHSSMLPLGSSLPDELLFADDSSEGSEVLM

[2] = target: T2, Recombinant soluble extracellular domain of human MerTK (human, UniProt Q12866 21-505); assay: SPR, mAb captured, soluble MerTK ECD as analyte, 37 C
T2 construct: SPR analyte; also called hMerTK
T2 sequence: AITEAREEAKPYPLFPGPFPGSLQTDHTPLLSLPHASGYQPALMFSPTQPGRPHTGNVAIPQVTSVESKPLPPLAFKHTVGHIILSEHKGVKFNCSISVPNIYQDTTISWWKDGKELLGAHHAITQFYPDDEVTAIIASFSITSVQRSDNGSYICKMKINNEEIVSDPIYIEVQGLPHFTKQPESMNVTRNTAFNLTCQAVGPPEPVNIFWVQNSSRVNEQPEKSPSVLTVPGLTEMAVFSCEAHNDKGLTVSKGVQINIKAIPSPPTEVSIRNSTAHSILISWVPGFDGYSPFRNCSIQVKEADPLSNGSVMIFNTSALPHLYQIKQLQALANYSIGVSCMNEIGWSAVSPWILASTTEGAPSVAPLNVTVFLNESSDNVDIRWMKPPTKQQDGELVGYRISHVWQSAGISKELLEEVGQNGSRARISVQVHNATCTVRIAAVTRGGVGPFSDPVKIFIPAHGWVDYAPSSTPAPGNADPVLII
Protocol: (§1) MerTK Abs were captured on the chip. Recombinant soluble forms of the extracellular domains of human, cynomolgus monkey, and mouse MerTK polypeptide were injected as analytes at multiple concentrations each. The resulting sensorgrams were double-referenced and fitted to a 1:1 Langmuir binding model with mass transport.

[3] = target: T3, Recombinant soluble extracellular domain of cynomolgus monkey MerTK (cynomolgus monkey, UniProt Q12866 21-505 (human entry)); assay: as above
T3 construct: SPR analyte; also called cMerTK; Cynomolgus MerTK
T3 chain: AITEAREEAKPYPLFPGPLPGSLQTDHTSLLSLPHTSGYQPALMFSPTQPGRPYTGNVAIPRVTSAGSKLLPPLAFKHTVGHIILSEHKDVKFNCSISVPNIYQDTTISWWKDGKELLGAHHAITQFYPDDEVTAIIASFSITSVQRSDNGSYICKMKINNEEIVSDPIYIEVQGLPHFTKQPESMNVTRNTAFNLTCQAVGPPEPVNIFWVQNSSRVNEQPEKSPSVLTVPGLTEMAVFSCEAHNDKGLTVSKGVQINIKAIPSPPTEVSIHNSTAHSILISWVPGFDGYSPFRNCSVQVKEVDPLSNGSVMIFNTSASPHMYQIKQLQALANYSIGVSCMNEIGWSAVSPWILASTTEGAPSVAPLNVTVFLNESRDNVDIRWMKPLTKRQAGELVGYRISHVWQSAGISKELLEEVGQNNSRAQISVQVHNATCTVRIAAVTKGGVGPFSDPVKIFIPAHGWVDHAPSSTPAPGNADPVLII
Protocol: as §1

[4] = target: T4, Recombinant soluble extracellular domain of mouse MerTK (mouse, UniProt Q60805 19-497); assay: as above
T4 construct: SPR analyte; also called mMerTK
T4 sequence: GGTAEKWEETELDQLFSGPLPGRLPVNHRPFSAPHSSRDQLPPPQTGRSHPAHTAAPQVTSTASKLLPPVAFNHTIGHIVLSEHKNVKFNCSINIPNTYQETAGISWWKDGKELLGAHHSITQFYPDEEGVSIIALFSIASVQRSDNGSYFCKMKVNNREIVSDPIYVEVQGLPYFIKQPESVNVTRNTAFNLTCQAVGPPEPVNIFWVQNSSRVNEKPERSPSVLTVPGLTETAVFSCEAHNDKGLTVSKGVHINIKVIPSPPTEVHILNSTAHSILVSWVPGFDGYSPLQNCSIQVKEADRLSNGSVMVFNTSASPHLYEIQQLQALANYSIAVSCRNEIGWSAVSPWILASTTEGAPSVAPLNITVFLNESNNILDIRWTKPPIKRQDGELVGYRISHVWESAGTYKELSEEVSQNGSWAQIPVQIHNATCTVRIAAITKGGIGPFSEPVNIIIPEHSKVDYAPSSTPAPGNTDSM
Protocol: as §1

[5] = target: T5, Mouse MerTK on mMerTK-expressing cells (mouse, UniProt Q60805 19-994); assay: cell-based or functional assay
T5 sequence: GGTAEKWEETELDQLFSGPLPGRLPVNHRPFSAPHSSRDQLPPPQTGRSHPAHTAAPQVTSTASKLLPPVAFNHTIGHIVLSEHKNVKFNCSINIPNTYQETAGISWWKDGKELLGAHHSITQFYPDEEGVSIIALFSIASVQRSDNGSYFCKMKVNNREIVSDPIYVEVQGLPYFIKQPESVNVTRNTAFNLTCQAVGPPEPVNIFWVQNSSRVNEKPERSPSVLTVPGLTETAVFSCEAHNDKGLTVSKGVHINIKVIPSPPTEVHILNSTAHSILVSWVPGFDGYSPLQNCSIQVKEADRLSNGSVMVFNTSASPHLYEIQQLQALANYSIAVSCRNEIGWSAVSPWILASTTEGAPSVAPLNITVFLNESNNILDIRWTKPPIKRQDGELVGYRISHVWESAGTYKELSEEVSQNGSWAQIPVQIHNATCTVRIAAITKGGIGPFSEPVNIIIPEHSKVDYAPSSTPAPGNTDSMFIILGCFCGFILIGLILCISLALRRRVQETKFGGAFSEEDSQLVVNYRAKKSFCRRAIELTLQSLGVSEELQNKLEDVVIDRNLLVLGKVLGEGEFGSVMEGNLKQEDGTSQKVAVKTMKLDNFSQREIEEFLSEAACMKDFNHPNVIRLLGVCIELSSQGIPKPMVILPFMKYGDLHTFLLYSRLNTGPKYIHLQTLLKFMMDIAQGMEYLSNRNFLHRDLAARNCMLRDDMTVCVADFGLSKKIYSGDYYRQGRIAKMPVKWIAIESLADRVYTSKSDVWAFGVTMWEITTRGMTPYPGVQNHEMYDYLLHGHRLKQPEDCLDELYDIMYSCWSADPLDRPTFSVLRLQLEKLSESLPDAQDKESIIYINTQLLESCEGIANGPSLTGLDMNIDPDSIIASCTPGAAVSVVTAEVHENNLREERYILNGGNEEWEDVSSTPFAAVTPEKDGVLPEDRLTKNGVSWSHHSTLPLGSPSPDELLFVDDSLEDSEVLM

[6] = target: T2, Recombinant soluble extracellular …; assay: SPR, soluble MerTK ECD; format for mouse mAbs not detailed
[7] = target: T4, Recombinant soluble extracellular …; assay: as above
[8] = target: T3, Recombinant soluble extracellular …; assay: as above

Binder	Inhibition of Efferocytosis IC50 [1] [nM]	Signaling Assay, hMerTK with Gas6, pSTAT1 IC50 (nM) [1] [nM]	Signaling Assay, hMerTK without Gas6, pSTAT1 IC50 (nM) [1] [nM]	Kd [2] [nM]	koff [2] [s⁻¹]	kon [2] [M⁻¹ s⁻¹]	t1/2 [2] [min]	Kd [3] [nM]	koff [3] [s⁻¹]	kon [3] [M⁻¹ s⁻¹]	t1/2 [3] [min]	Kd [4] [nM]	koff [4] [s⁻¹]	kon [4] [M⁻¹ s⁻¹]	t1/2 [4] [min]	Signaling Assay, mMerTK with Gas6, pSTAT1 IC50 (nM) [5] [nM]	koff [6] [s⁻¹]	t1/2 [6] [min]	Kd [7] [nM]	koff [7] [s⁻¹]	other results
B1	0.169	1.13	> 100	9	0.00117	132000	9.9	22.5	0.00235	108000	4.9	–	–	–	–	–	–	–	–	–	–
B2	–	1.37	–	24.8	0.00146	58900	7.9	27	0.00151	55900	7.7	13.7	0.00123	89500	9.4	–	–	–	–	–	–
B3	–	8.88	–	50.8	0.00134	26400	8.6	42.5	0.00137	32200	8.4	47.1	0.00249	52900	4.6	–	–	–	–	–	–
B4	0.528	1.44	> 100	–	–	–	–	–	–	–	–	–	–	–	–	2.07	0.00064	18.2	3.2	0.000403	kon [7]: 126000 M⁻¹ s⁻¹; t1/2 [7]: 28.7 min; Kd [8]: 12 nM; koff [8]: 0.00064 s⁻¹; kon [8]: 53300 M⁻¹ s⁻¹; t1/2 [8]: 18 min
B5	0.632	1.52	> 100	–	–	–	–	–	–	–	–	–	–	–	–	1.86	0.00114	10.1	9.7	0.00133	kon [7]: 137000 M⁻¹ s⁻¹; t1/2 [7]: 8.7 min; Kd [8]: 40 nM; koff [8]: 0.00112 s⁻¹; kon [8]: 28400 M⁻¹ s⁻¹; t1/2 [8]: 10.3 min
